Results from EP4714972A1.

What was measured:
[1] = molecular target: CD38 antigen (human-derived CD38 antigen protein) (human) (UniProt P28907); test: phage ELISA on coated CD38 antigen; control well (PVA) OD 0.13
[2] = molecular target: CD38 antigen (human-derived CD38 antigen protein) (human) (UniProt P28907); test: phage ELISA on coated CD38 antigen; control well (PVA) OD 0.18
[3] = molecular target: CD38 antigen (human-derived CD38 antigen protein) (human) (UniProt P28907); test: phage ELISA on coated CD38 antigen; control well (PVA) OD 0.04
[4] = molecular target: CD38 antigen (human-derived CD38 antigen protein) (human) (UniProt P28907); test: phage ELISA on coated CD38 antigen; control well (PVA) OD 0.05

B1: B5 alpaca antibody (anti-CD38 single-domain antibody) (VHH)
VHH: QVQLVESGGGLVQPGGSLRLSCTASGFRLDYYAIGWFRQAPGKEREAISCIDITGMHTNYGDSVMGRFTISRDDAKRTVYLQMNSLEAEDTGIYYCAPAQYAACSALGVKVSFTSWGQGTQVTVSP
Question: B1 was tested. Which OD value of the antigen well (Pro) [1] did it give?
Answer: 0.89 OD

B2: B2 alpaca antibody (anti-CD38 single-domain antibody) (VHH)
VHH: QVQLVESGGGLVQPGGSLTLSCRASGFTLDYYAIGWFRQAPGKEREAIACIDITGFHTNYGDSVSGRFTISRDNAGTTVYLQMNSLEAEDTGIYYCAPARYAACSALDVKLSFTSWGQGTQVTVSS
Question: Which OD value of the antigen well (Pro) [2] does the source give for B2 here?
Answer: 1.07 OD

B3: B8 alpaca antibody (anti-CD38 single-domain antibody) (VHH)
VHH: QVQLVESGGGLVQPGGSLRLSCTASGFRLDYYAIGWFRQAPGKEREAIACIDITGFHTNYGDSVSGRFTISRDNAGTTVYLQMNSLEAEDTGIYYCAPARYAACSALDVKLSFTSWGQGTQVTVSS
Question: Which OD value of the antigen well (Pro) [3] does the source give for B3 here?
Answer: 1.77 OD

B4: B3 alpaca antibody (anti-CD38 single-domain antibody) (VHH)
VHH: QVQLVESGGGLVQAGGSLRLACTASGNIFASQVMNWYRQAPGSPRELVATITPGGRTTYADSAKGRFTVATDNAKATAYLQLTSLTPEDTGVYYCHVRLFPATDYWGQGTQVTVSS
Question: B4 was tested. Which OD value of the antigen well (Pro) [4] did it give?
Answer: 0.15 OD

B5: B1 alpaca antibody (anti-CD38 single-domain antibody) (VHH)
VHH: QVQLVESGGGEVQPGGSLRLSCTASGFRLDYYAIGWFRRAPGKEREGIACIDITGIHTNYGDSVMGRFTISRDDRAVYLQMNNLEAGDTAIYYCAPARFSACSALDVKLSFTSWGQGTQVTVSS
Question: For B5, which OD value of the antigen well (Pro) [2] is on record?
Answer: 0.65 OD
